The record followed here is the nanobody polyreactivity screen of Harvey et al. (2022).

The data set can be described thus: yeast display, Sf9 membrane polyspecificity reagent, FACS + sequencing; frameworks hold sequencing errors. A digest of the protocol: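 Synthetic nanobody libraries on Saccharomyces cerevisiae BJ5465 were galactose-induced for 36–48 hours, stained 1 hour at 4 °C with 10% biotinylated, detergent-solubilized Sf9 membrane reagent and enriched on streptavidin microbeads. FACS then separated cells into low and high (top ~1%) gates by anti-HA (expression) and streptavidin (reagent binding) fluorescence. Genes were colony-PCR amplified, MiSeq 2 × 250 sequenced and CDR-length filtered. A clone's polyreactivity label is that of its gate of origin.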
As to “QVQLVESGGGLVQAGGSLRLSCAASGSTFFHYAMGWYRQAPGKERELVAAIDSNGGSTYYADSVKGRFTISRDNAKNTVYLQMNSLKPEDTAVYYCAADDLAEFEYDYWGQGTQVTVSS”, the “polyreactivity (PSR sort gate)” value is “low polyreactivity”.
In the case of “QVQLVESGGGLVQAGGSLRLSCAASGSTFFLYAMGCYRQAPGNERELVAAISWRGASTYYADSVNGSFTISRDNAKNSVYLQMNSLKPDDTAVYYCAADLLPLYDDWGQGTQVTVSS”, the “polyreactivity (PSR sort gate)” value is on record as “high polyreactivity”.
With “QVQLVESGGGLVQAGGSLRLSCAASGSTFFLYAMGWYRQAPGKERELVAAITYTDGDTYYADSVKGRFTISRDIAKKTVYLQMNSLKPEDTAVYYCAADSWVQFDYWGQGTQVSVSS” the entry was “low polyreactivity”.
In the case of “QVQLVESGGGLVQAGGSLRLSCAASGSTFFRNAMGWYRQAPGKERELVAAISKSGTSTYYADSVKGRFTISRDNAKNNVYLQMNSLKPEDTAVYYCAKYGFCYPQSYAYYYWGQGTQVTVSS”, the “polyreactivity (PSR sort gate)” value is “high polyreactivity”.
Take “QVQLVESGGGLVQAGGSLRLSCAASGSTFFRYAMGWYRQAPGKEREFVAAITSSGGNTYYADSVKGRFTISRDNAKNTVYFQMNSLKPEDTAVYYCAAVWYSPYVKYNYWGQGTQVTVSS”: the “polyreactivity (PSR sort gate)” value is on record as “low polyreactivity”.
For “QVQLVESGGGLVQAGGSLRLSCAASGSTFFRYAMGWYRQAPGKERELVAAISKSGASTYYADSVKGRFTISRDNAKNTVYLQMNSLKPEDTAVYYCNADVKKSSAREWQYGYDYWGQGTQVTVSS”, the “polyreactivity (PSR sort gate)” value was “low polyreactivity”.
Consider “QVQLVESGGGLVQAGGSLRLSCAASGSTFFRYAMGWYRQAPGKERELVAAISKSGGTTSYADSVKGRITISRDNAKNTVYLQMNSLKQEDTAVYYCAARVQHIYDWGQGTQVTVSS”, for which the “polyreactivity (PSR sort gate)” value is on record as “high polyreactivity”.
Regarding “QVQLVESGGGLVQAGGSLRLSCAASGSTFFRYAMGWYRQAPGKERELVAVINRGGSTYYADSVKGRFTISRDNAKNTVYLQMNSLKPEDTAVYYCAKRVFYPGAYRYYYWGQGTQVTVSS”, the “polyreactivity (PSR sort gate)” value was “high polyreactivity”.
As to “QVQLVESGGGLVQAGGSLRLSCAASGSTFFSNAMGWYRQAPGKERELVATIRVGGGSTYADSVKGRFTISRDNAKNTVYLQMNSLKPEDTADYYCAADDSDTRYTRSRYGYWGQGTQVTVSS”, the “polyreactivity (PSR sort gate)” value is “low polyreactivity”.
With “QVQLVESGGGLVQAGGSLRLSCAASGSTFFSYAMGWYRQAPGKERELVAAITSNGGTTHYADSVKGRFTISRDNAKNTVYLQMNSLKPEDTADYYCAKAQGHVRGSRGLQGGRYDYWGQGTQVTVSS”, the “polyreactivity (PSR sort gate)” value is reported as “low polyreactivity”.
The value for “QVQLVESGGGLVQAGGSLRLSCAASGSTFFTNAMGWYRQAPGKERELVAAINFRGSTYYADSVKGRFTISRDNAKNTVYLQMNSLKPEDTAVYYCATDRQRSYRTVRSPIFNYWGQGTQVTVSS” was “high polyreactivity”; that for “QVQLVESGGGLVQAGGSLRLSCAASGSTFFTNAMGWYRQAPGKERELVAGISYGGGRTYYADSVKGRFTISLDNAKNTVYLQMNRLKPEDTAVYYCNTVTSQAPYYSYVSWGQGTQVTVSS” was “high polyreactivity”; that for “QVQLVESGGGLVQAGGSLRLSCAASGSTFFTNAMGWYRQAPGKERELVATITWSGGSTYADSVKGRFTISRDNAKNTVYLQMNSLKPEDTAVYYCAAESSSYWGDLGGALWLYDYWGQGTQVTVSS” was “low polyreactivity”.
With “QVQLVESGGGLVQAGGSLRLSCAASGSTFFVNAMGWYRQAPGKERELVAAISTSGGRTYYADSVKGRFTISRDNAKNTVYLQMNSLKPEDTAVYYCAAFLRSPKGYYYWGQGTQVTVSS” the entry was “high polyreactivity”; with “QVQLVESGGGLVQAGGSLRLSCAASGSTFFVNAMGWYRQPPGKERELVAAISTSGGRTYYADSVKGRFTISRDNAKNTVYLQMNSLKPEDTAVYYCAAYLRSPKGYYYWGQGTQVTVSS”, “high polyreactivity”.
Turning to “QVQLVESGGGLVQAGGSLRLSCAASGSTFFVYDMGWYRQAPGKERELVAAISISDGGTYYADSVKGRFTISRDNAKNTVYLQMNSQKPVDTAVYYCAADYSERYFRGYDYWGQGTQVTVSS”, the “polyreactivity (PSR sort gate)” value is listed as “low polyreactivity”.
The value for “QVQLVESGGGLVQAGGSLRLSCAASGSTFFYSMGWYRKAPRKERELVAAISWIDSITYYADSVKGRFTISRDNAKNTVYLQMNSLKPEDIAVYYCAAEGQNEGYDYWVQGTQVTVSS” was “high polyreactivity”; that for “QVQLVESGGGLVQAGGSLRLSCAASGSTFFYYAMGWYRQAPGKERELVAAISRNGGSTYYADSVKGRFTISRDNAKNTVYLQMNSLKPEDTAVYYCNAYNLAGRYFDYWGQGTQVTVSS” was “high polyreactivity”.
With “QVQLVESGGGLVQAGGSLRLSCAASGSTFFYYAMVWYRQAPGKERELVAAISQSSASTYYADSVKGRFTISRDNAKNTVYLQMNSLKPEDTAVYYCAAARGYWWYDYWGQGTQVTVSS” the entry was “high polyreactivity”; with “QVQLVESGGGLVQAGGSLRLSCAASGSTFGANAMGWYRQAPGKEREFVAAISRSGVRTYYADTVKGRFTMSRDNAKITVYFQMNSLKPEDTAVYYCAADGYWWTYTRYDYWGQGTQVTVSS”, “low polyreactivity”.
With “QVQLVESGGGLVQAGGSLRLSCAASGSTFGAYAMGWYRQAPGKERELVAAINRGTSTNYADSVKGRFTISRDNAKNTVYLQMNSLKPEDTAVYYCAVAVLPWQLYSESYAEYDYWGQGTQVTVSS” the entry was “low polyreactivity”; with “QVQLVESGGGLVQAGGSLRLSCAASGSTFGAYVMGWSRQAPGKERELVAGITYSGGTTYYAYSVKGRFTISRDNSKNTVYLQMNILKPEDTAVYYCNVSQHYSRRLKKWQMDYWGQGTQVTVSS”, “high polyreactivity”; with “QVQLVESGGGLVQAGGSLRLSCAASGSTFGDNAMGWYRQAPGKEREFVATISWDTATTYYADSVKARFTISRDNAKNTVYLQMNSLKPEDTAVYYCAARATAYYTVPSYADVDYWGQGTQVTVSS”, “low polyreactivity”.
“QVQLVESGGGLVQAGGSLRLSCAASGSTFGDNAMGWYRQAPGKERELVARISSGGNTYYADSVKGRFTISRDNAKNTVYLQMNSLKPEFTAVYYCAADIIVRYKKFPYYYWGQGTQVNVSS”: the “polyreactivity (PSR sort gate)” value is on record as “high polyreactivity”.
The value for “QVQLVESGGGLVQAGGSLRLSCAASGSTFGDYAMGWYRQAPGKERELVAAISRSAGSTYYADSVKGRFTISRDNAKNTVYLQMNSLKPEDTAVYYCAAEYQYHWAYIYYYWGQGTQVTVSS” was “high polyreactivity”; that for “QVQLVESGGGLVQAGGSLRLSCAASGSTFGDYAMGWYRQGPGKERELVASINQNGGDTYYADSVKGRFTISRDNAKNTVYLQMNSLKPEDTAVYYCAAEAGYYFQTVAIDMGYWGQGTQVTVSS” was “low polyreactivity”; that for “QVQLVESGGGLVQAGGSLRLSCAASGSTFGEYAMGWYRQAPGKERELVAAISWSGDTTYYADSVKGRFTISRDNAKNTVYLQMNSLKPEDTAVYYCAARDYDRVGEDYWGQGTQVTVSS” was “low polyreactivity”.
With “QVQLVESGGGLVQAGGSLRLSCAASGSTFGFNAMGWYRQAPGKERELVAAITKSGGSTYYADSVKGRFTISRDNAKNTVYLQMNSLKPEDTAVYYCAARRSGRKYDYWGQGTQVTVSS” the entry was “high polyreactivity”; with “QVQLVESGGGLVQAGGSLRLSCAASGSTFGFNVMGWYRQAPGKERELVAVITSDGNTYYADSVKGRFTISRDNAKNTVYFQMNSLIPEDTAVYYCAVSELGTPYGYWGQGTQVTVSS”, “low polyreactivity”.
Regarding “QVQLVESGGGLVQAGGSLRLSCAASGSTFGFYAMGWYRQAPGKERELVAAITASGDSTYYADSVKGRFTISRDNAKNTVYLQMNSLKPEDTAVYYCNAVWRYYRKRRAGDFGYWGQGTQVTVSS”, the “polyreactivity (PSR sort gate)” value is recorded as “low polyreactivity”.
The value for “QVQLVESGGGLVQAGGSLRLSCAASGSTFGFYAMGWYRQAPGKERELVAAITGGGSTNYADSVKGRFTISRDNAKNTVYLQMNSLNPEDTAVYYCAVVQRYWYPGIVPYDYWGQGTQVTVSS” was “high polyreactivity”; that for “QVQLVESGGGLVQAGGSLRLSCAASGSTFGGNAMGWYRQAPGKERELVAAIDSGGGTNYADSVKGRFTISRDNAKNTVYLQMNSLKPEDTAVYYCNADWAVRSTQNSSSGHVYWGQGTQVTVSS” was “low polyreactivity”; that for “QVQLVESGGGLVQAGGSLRLSCAASGSTFGGNAMGWYRQAPGKERELVAAITIGGRTNYADSVKGRFTISRDNAKNTVYLQMNSLKPEDTAVYYCAKDRDQWQDYWGQGTQVTVSS” was “low polyreactivity”.
With “QVQLVESGGGLVQAGGSLRLSCAASGSTFGGNAMGWYRQAPGKERELVASISDGGRTNYADSVKGRFTISRDNAKNTVYLQMNSLKPEDTAVYYCAADYAPVAFDYWGQGTQVTVSS” the entry was “low polyreactivity”.
In the case of “QVQLVESGGGLVQAGGSLRLSCAASGSTFGGNGMGWYRQAPGKKGSWVAAISWSGGSTYYADSVKGRFTISRDNAKNTVYLQMNSLKPEDTAVYYCAARTVYRGRAYDYWGQGTQVTVSS”, the “polyreactivity (PSR sort gate)” value is recorded as “high polyreactivity”.
The value for “QVQLVESGGGLVQAGGSLRLSCAASGSTFGGNVMGWYRPAPGKERELVATISRSGGSTYYADSVKGRFTISRDNAKNTVYLQMNSLKPEDTAVYYCAARTLHYSPSTFYRYQYDYWGQGTQVTVSS” was “high polyreactivity”; that for “QVQLVESGGGLVQAGGSLRLSCAASGSTFGGYAMGWYRQAPGKERELVAAISNGDRTNYADSVKGRFTISRDNAKNTVYLQMNSLKPEDTAVYYCATQPLTWSSYRWDWRAQFDHWGQGTQVTVSS” was “low polyreactivity”.
On to “QVQLVESGGGLVQAGGSLRLSCAASGSTFGGYAMGWYRQAPGKERELVAAITYSGGSTYYADSVKGRFTISRDNAKNTVYLQMNSLKPEVTAVYYCNADDDDALPWWWPYVLDVDYWGQGTQVTVSS”, for which the “polyreactivity (PSR sort gate)” value is “low polyreactivity”.
The value for “QVQLVESGGGLVQAGGSLRLSCAASGSTFGGYVMGWYRQAPGKERELVAAIRRVGRTYYADSVKGRFTISRDNAKNTVYLQMNSLKPEDTAVYYCAKDNWVNYDDSHDSWGQGTQVTVSS” was “low polyreactivity”.
Turning to “QVQLVESGGGLVQAGGSLRLSCAASGSTFGHYAMGWYRPAPGKERELVAVISRSGARTYYADSVKGRYTISRDNAKNTVYLQMNSLKPEDTAVYYCNAGPYGGNPFDYWGQGTQVTVSS”, the “polyreactivity (PSR sort gate)” value is reported as “high polyreactivity”.
